From US20240174744A1 (SCIRHOM, published 2024)

Target: T1, dog iRhom2 full length wild type, C-terminally tagged with 3 consecutive copies of the T7 epitope (dog, UniProt Q00M95 1-827)
T1 construct: whole, on cells; also called Dog-iR2-FL-WT-T7
T1 sequence: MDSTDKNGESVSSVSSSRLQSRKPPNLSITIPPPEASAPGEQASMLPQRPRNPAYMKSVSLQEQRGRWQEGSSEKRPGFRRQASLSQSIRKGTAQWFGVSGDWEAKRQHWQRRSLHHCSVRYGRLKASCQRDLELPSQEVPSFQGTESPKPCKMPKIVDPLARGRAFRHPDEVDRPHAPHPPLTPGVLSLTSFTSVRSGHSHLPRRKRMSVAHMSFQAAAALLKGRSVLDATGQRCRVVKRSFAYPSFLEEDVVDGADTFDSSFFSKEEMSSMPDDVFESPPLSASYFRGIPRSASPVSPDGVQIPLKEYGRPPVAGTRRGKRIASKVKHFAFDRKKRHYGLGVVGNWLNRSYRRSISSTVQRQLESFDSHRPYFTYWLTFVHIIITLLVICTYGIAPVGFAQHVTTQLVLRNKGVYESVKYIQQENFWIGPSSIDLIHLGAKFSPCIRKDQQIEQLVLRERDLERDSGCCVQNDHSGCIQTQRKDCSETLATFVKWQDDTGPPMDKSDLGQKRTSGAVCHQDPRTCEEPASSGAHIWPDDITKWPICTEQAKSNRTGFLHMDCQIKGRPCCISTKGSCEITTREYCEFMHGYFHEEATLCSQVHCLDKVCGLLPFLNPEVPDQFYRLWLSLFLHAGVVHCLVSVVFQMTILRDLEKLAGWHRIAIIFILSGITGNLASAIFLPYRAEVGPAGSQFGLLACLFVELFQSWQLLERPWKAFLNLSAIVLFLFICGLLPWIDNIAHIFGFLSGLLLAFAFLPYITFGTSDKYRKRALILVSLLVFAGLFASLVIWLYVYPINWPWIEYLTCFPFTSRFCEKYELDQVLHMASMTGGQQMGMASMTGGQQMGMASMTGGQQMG
Test: FACS, MEF-DKO-Dog-iR2-FL-WT-T7 cells
Experimental: In brief, immortalized MEF-DKO-EV control cells, MEF-DKO-rhesus-iR2-FL-WT-T7 cells, MEF-DKO-cyno-iR2-FL-WT-T7 cells, MEF-DKO-dog-iR2-FL-WT-T7 cells and MEF-DKO-rabbit-iR2-FL-WT-T7 cells, as well as their respective iRhom1 counterparts, were harvested with 10 mM EDTA in PBS, washed and resuspended in FACS buffer (PBS, 3% FBS, 0.05% sodium azide), and seeded in Nunc U-bottom 96-well plates (Thermo Fisher Scientific, USA) at approximately 3×10⁵ cells per well. To pellet cells and remove supernatants, the plates were centrifuged at 1,500 rpm and 4° C. for 3 minutes. For primary staining, cells were resuspended in 100 μl per well of either FACS buffer alone (controls), mouse monoclonal anti-T7 IgG (Merck Millipore, USA) at 3 μg/ml FACS buffer or the antibodies of the present disclosure also at 3 μg/ml FACS buffer and incubated on ice for 1 hour. Afterwards, plates were centrifuged at 1,500 rpm and 4° C. for 3 minutes and washed twice with 200 μl per well of FACS buffer. For secondary staining, cells were spun down and resuspended in 100 μl per well of PE-conjugated goat anti-mouse IgG F(ab′)2 detection fragment (Dianova, Germany) diluted 1:100 in FACS buffer. Protected from light, the cell suspensions were incubated on ice for 1 hour. Plates were then centrifuged at 1,500 rpm and 4° C. for 3 minutes and washed three times with 200 μl per well of FACS buffer. Finally, cells were resuspended in 150 μl per well of FACS buffer and analyzed using a BD Accuri™ C6 Plus flow cytometer (Becton Dickinson, Germany).

| Binder | binding result |
| --- | --- |
| antibody 34 (antibody, V domains shown, Mouse IgG, kappa light chain; also called clone #34; m34) VH: QVTLKESGPGILQPSQTLSLTCSFSGFSLSTFSLGVGWIRQSSGKGLEWLAHIWWDDEKYYNPALKSRLTISKDTSKNQVFLKIANVDAADTATYYCARAYYSKSYYALDYWGQGTSVTVSS VL: DIQMTQSPSSLSASLGERVSLTCRASQEISGYLSWLQQKPDGTIKRLIYAASTLDSGVPKRFSGSRSGSDYSLAISSLESEDFADYYCLQYANFPFTFGSGTKLEIK | binds |
| antibody 51 (antibody, V domains shown, Mouse IgG, kappa light chain; also called clone #51) VH: QVQLQQSGAELVKPGASVKISCKASGYTFSNYWMNWVKQRPGKGLEWIGQIYPGDGDTKYNGKFKNKATLTADKSSSTAYMQFSSLTSEDSAVYFCARGDLVFVYWGLGTLVTVSA VL: DVQITQSPSYLAVSPGETITINCRASKNIRKYLAWYQEKPGKTNKLLIYSGSTSQSGVPSRFSGSGSGTDFTLTISSLEPEDFAMYYCQQHNEYPYTFGGGTKLEIK | binds |
| antibody 48 (antibody, V domains shown, Mouse IgG, kappa light chain; also called clone #48; purified antibody 48) VH: QVQLQQSGTELVRPGTSVKVSCKASGYAFTNYLIEWVKQRPGQGLEWIGVINPGSGFTKYNEKFKGKATLTADKSSSTVYMHLSSLTSEDSAVYFCARGLYRAMDYWGQGTSVTVSS VL: DIQMTQSPASQSASLGESVTITCLASQTIATWLAWYQQKPGKSPQLLIYGATTLADGVPSRFSGGGSGTKFSFKISSLQAEDFVSYYCQQLYSTPYTFGGGTKLEIK | binds |
| antibody 47 (antibody, V domains shown, Mouse IgG, kappa light chain; also called clone #47) VH: QVQLQQSGAELVRPGTSVKVSCKASGYAFTNYLIEWVKQRPGQGLEWIGVINPGSGFTNYNEKFKGKAILNADKSSSTAYMQLISLTSEDSAVYFCARDLKRAMDHWGQGTSVTVSS VL: DIQMTQSPASQSASLGESVTITCLASQTIGTWLAWYQQKPGKSPQLLIHAATSLADGVPSRFSGSGSGTKFSFKISSLQAEDFVSYYCQQIYSSPYTFGGGTKLEIK | binds |
| antibody 50 (antibody, V domains shown, Mouse IgG, kappa light chain; also called clone #50; purified antibody 50) VH: QVQLQQSGAELVRPGASVKVSCKASGYAFSNYLIEWVKQRPGQGLEWIGVINPGSGFTKYNEKFKGKATLTADKSSSTAYMQLSSLTSEDSAVYFCARGLYRAMDYWGQGTSVTVSS VL: DIQMTQSPASQSASLGESVTITCLASQTIGTWLAWYQQKPGKSPQLLIYAAASLADGVPSRFSGGGSGTKFSFKISSLQAEDFVNYYCQQIYSTPYTFGGGTKLEIK | binds |
| antibody 46 (antibody, V domains shown, Mouse IgG, kappa light chain; also called clone #46) VH: QVTLKESGPGILQPSQTLSLTCSFSGFSLSTFGMGVGWIRQPSGKGLEWLAHIWWDDDNYYNQALKSRLTISKDNTKNQVFLNIANVDTADTATYYCARIRSYDYDVRYAMDYWGQGTSVTVSS VL: DIKMTQSPSSMYASLRERVTITCKASQDINSYLSWFQQKPGKSPKTLIYRANRLVDGVPSRFSGSGSGQDYSLTISSLEYEDLGIYYCQQYYEFPLTFGAGTRLELK | binds |
| antibody 43 (antibody, V domains shown, Mouse IgG, kappa light chain; also called clone #43) VH: QVALKESGPGILQPSQTLSLTCSFSGFSLSTFGMGVGWIRQSSGKGLEWLANIWWDDDKYYNPALKSRLTISKDASKNQAFLKIANVDTADTATYYCARIGNYGSNYWYFDVWGTGTTVTVSS VL: QIVLTQSPAIMSASPGERVTMTCSANSRISYMYWYQQKPGSSPRLLIYDTSNLASGVPVRFSGSGSGTSYSLTISRMEAEDAATYNCQQWSSYPLTFGAGTKLELK | binds |
| antibody 54 (antibody, V domains shown, Mouse IgG, kappa light chain; also called clone #54) VH: QVTLKESGPGILQPSQTLSLTCSFSGFSLSTFGLGVGWIRQPSGKGLECLAHIWWDDDKYSNPALKSRLTISKDTSKNQVFLKIANVDSADTATYFCARILNYGSNYWYFDVWGTGTTVTVSS VL: QIVLTQSPALMSASPGEKVTMTCSASSSISYMYWYQQKPGSSPRLLIYDTSNLASGVPVRFSGSGSGTSFSLTVSRMEAEDAATYYCQQWNSYPLTFGAGTKLELK | binds |
| antibody 42 (antibody, V domains shown, Mouse IgG, kappa light chain; also called clone #42; m42) VH: QVTLKESGPGILQPSQTLSLTCSLSGFSLSTFGRGVGWIRQPSGKGLEWLAHIWWDDEKYYNPALKSRLTISKDTSKNQVFLRIANVDTADTATYYCARIQNYGSNYWYFDVWGTGTTVTVSS VL: LIVLTQSPAIMSASPGEKVTMTCGATSRISYMFWYQQKPGSSPRVLIYDTSNLASGVPVRFSGSGSGTSYSLTISRVEAEDVATYYCQQWNSYPLTFGAGTKLELK | binds |
| antibody 44 (antibody, V domains shown, Mouse IgG, kappa light chain; also called clone #44; m44) VH: QVTLKESGPGILQPSQTLSLTCSFSGFSLSTFGMGVGWIRQPSEKGLEWLAHIWWDDDKYYNPALKSRLTISKDTSKNQIFLKITNVDTAETATYYCSRIGNYGSNYWYFDVWGTGTTVTVSS VL: QIVLTQSPAVMSASPGEKVTMTCTASSSVYYMYWYQQTPGSSPRLLIYDTSNLASGVPVRFSGSGSGTSYSLTISRMEAEDAATYYCQQWNTYPLTFGAGTKLELK | binds |
| antibody 57 (antibody, V domains shown, Mouse IgG, kappa light chain; also called clone #57) VH: QVTLKESGPGILQPSQTLSLTCSFSGFSLSTFGMGVGWIRQPSGKGLEWLAHIWWDDDKYYNPALKSRLTISKDTSKNQIFLKIANVDTADSATFYCARIENYGSNYWYFDVWGTGTTVTVSS VL: QIVLTQSPAIMSASPGEKVTMTCSASSSVSYMYWYQQKPGSSPRVLIYDTSNLASGVPVRFSGSGSGTSYSLTVSRMEAEDAATYYCQQWNSYPLTFGAGTKLELK | binds |
| antibody 22 (antibody, V domains shown, Mouse IgG, kappa light chain; also called clone #22; m22) VH: QVTLKESGPGILQPSQTLSLTCSFSGFSLSTFGMGVGWIRQPSGKGLEWLAHIWWDDEKYYNSALKSRLTISKATSKNQVFLKIANVDTADTATYYCARISNYGSNYWYFNVWGTGTTVTVSS VL: QVVLTQSPALMSASPGEKVTMTCSAGSSVSYMYWYQQKPGSSPRVLIYDTSNLASGVPARFTGSGSGTSYSLTISRMEAEDAATYYCQQWNSYPLTFGAGTKLELK | binds |
| antibody 56 (antibody, V domains shown, Mouse IgG, kappa light chain; also called clone #56) VH: QVTLKESGPGILQPSQTLSLTCSFSGFSLSTFGMGVGWIRQPSGKGLEWLTNIWWDDDKYYNSVLKSRLTISKDTSKNQVFLKIANVDTADTATYYCARIAAYGSNYWYFDVWGTGTTVTVSS VL: QIVLTQSPAIMSASPGEKVTMTCSASSSVSYMYWYQQKPGSSPRVLIYDTSNLSSGVPVRFSGSGSGTSYSLTISRMEAEDAATYYCQQWSSYPLTFGAGTKLELK | binds |
| antibody 49 (antibody, V domains shown, Mouse IgG, kappa light chain; also called clone #49) VH: QVTLKESGPGILQPSQTLSLTCSFSGFSLSTFGMGVGWIRQPSGKGLEWLAHIWWDDDKYYNPALQSRLTVSKDTAKNQVFLKIANVDTADTAIYYCARVGNYGSNYWYFAVWGTGTTVTVSS VL: QIVLTQSPAIMSASPGEKVTMTCSASSSVSYMYWYQQKPGSSPRLLIYDTSNLASGVPVRFSGSGSGTSYSLTISRMEAEDAATYYCQQWNSYPLTFGAGTKLELK | binds |
